# Laboratory results reported in the supplement of paper PMC9233669.
# Variants at the floor of the assay were thinned out.
# Legend:
# [1] = test system: biotinyl-Phe-oxazolone; assay: self-aminoacylation, catalytic enhancement (BFO) (fold over background); higher = more active; k-Seq, kA / k0A0; sequences stand for … in GGGAAUGGAUCCACAUCUACGAAUUC…UUCACUGCAGACUUGACGAAGCUG
# Outline: (§1)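 Mutagenized RNA pools (0.43 μM; 21-nt variable region) were treated with 2–1250 μM of each biotinyl-aminoacyl-oxazolone. Conditions were 50 μL HEPES/NaCl/KCl/MgCl2/CaCl2 buffer, 5% acetonitrile, pH 6.9–7.0, room temperature, 90 minutes. Catalytic enhancement, the median kA relative to the uncatalyzed rate, was derived from streptavidin capture, qPCR and Illumina sequencing.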
# [2] = test system: biotinyl-Leu-oxazolone; assay: self-aminoacylation, catalytic enhancement (BLO) (fold over background); higher = more active; k-Seq, kA / k0A0; sequences stand for … in GGGAAUGGAUCCACAUCUACGAAUUC…UUCACUGCAGACUUGACGAAGCUG
# Outline: as §1
# [3] = test system: biotinyl-Met-oxazolone; assay: self-aminoacylation, catalytic enhancement (BMO) (fold over background); higher = more active; k-Seq, kA / k0A0; sequences stand for … in GGGAAUGGAUCCACAUCUACGAAUUC…UUCACUGCAGACUUGACGAAGCUG
# Outline: as §1
# [4] = test system: biotinyl-Val-oxazolone; assay: self-aminoacylation, catalytic enhancement (BVO) (fold over background); higher = more active; k-Seq, kA / k0A0; sequences stand for … in GGGAAUGGAUCCACAUCUACGAAUUC…UUCACUGCAGACUUGACGAAGCUG
# Outline: as §1
# [5] = test system: biotinyl-Trp-oxazolone; assay: self-aminoacylation, catalytic enhancement (BWO) (fold over background); higher = more active; k-Seq, kA / k0A0; sequences stand for … in GGGAAUGGAUCCACAUCUACGAAUUC…UUCACUGCAGACUUGACGAAGCUG
# Outline: as §1
# [6] = test system: biotinyl-Ile-oxazolone; assay: self-aminoacylation, catalytic enhancement (BIO) (fold over background); higher = more active; k-Seq, kA / k0A0; sequences stand for … in GGGAAUGGAUCCACAUCUACGAAUUC…UUCACUGCAGACUUGACGAAGCUG
# Outline: as §1
Sequence,self-aminoacylation [1],self-aminoacylation [2],self-aminoacylation [3],self-aminoacylation [4],self-aminoacylation [5],self-aminoacylation [6]
AUUACCCCGGUGAUCGAGUGA [Fam2.1 aminoacylation ribozyme variant],21.5,3.33,3.73,2.23,4.35,2.23
AUUACCCCGGUUAUCGAGUGA [Fam2.1 aminoacylation ribozyme variant],32.1,6.39,6.01,2.74,5.95,2.72
AUUACCCGGCUCAUCGAGUGA [Fam2.1 aminoacylation ribozyme variant],0.746,1.71,1.72,1.72,1.61,1.79
AUUACCCGGGUCAACGAGUGA [Fam2.1 aminoacylation ribozyme variant],63.5,9.62,9.41,4.94,9.96,5.11
AUUACCCGGGUCAUAGAGUGA [Fam2.1 aminoacylation ribozyme variant],71.4,9.4,9.33,4.45,10.4,4.55
AUUACCCGGGUCAUCAAGUGA [Fam2.1 aminoacylation ribozyme variant],5.43,2.35,2.59,2.08,2.93,1.77
AUUACCCGGGUCAUCGACUGA [Fam2.1 aminoacylation ribozyme variant],0.62,0.675,0.768,0.837,0.755,0.845
AUUACCCGGGUCAUCGAGGGA [Fam2.1 aminoacylation ribozyme variant],3.47,1.61,1.32,1.32,0.834,1.46
AUUACCCGGGUCAUCGAGUGC [Fam2.1 aminoacylation ribozyme variant],5.14,1.72,1.21,1.39,1.13,1.46
AUUACCCGGGUCAUCGAGUGU [Fam2.1 aminoacylation ribozyme variant],10.8,3.19,3.48,2.11,3.42,2.33
AUUACCCGGGUCAUCGCGUGA [Fam2.1 aminoacylation ribozyme variant],178,28.3,25.4,15.6,27.8,12
AUUACCCGGGUGAUCGAGUGA [Fam2.1 aminoacylation ribozyme variant],46.1,7.76,7.21,4.2,8.54,3.2
AUUACCCUAAUCAUCGAGUGA [Fam2.1 aminoacylation ribozyme variant],19.8,6.87,6.83,3.39,7.8,3.28
AUUACCCUAGUCGUCGAGUGA [Fam2.1 aminoacylation ribozyme variant],1.04,0.845,0.893,0.97,0.759,0.866
AUUACCCUAGUGAUCGAGUGA [Fam2.1 aminoacylation ribozyme variant],7.82,2.72,3.31,1.86,3.1,1.76
AUUACCCUCGGCAUCGAGUGA [Fam2.1 aminoacylation ribozyme variant],59.4,11.1,10.2,4.45,13.9,4.6
AUUACCCUCGUCAUAGAGUGA [Fam2.1 aminoacylation ribozyme variant],11.5,4.19,4.53,2.72,4.65,2.43
AUUACCCUCGUCAUCAAGUGA [Fam2.1 aminoacylation ribozyme variant],6.71,2.87,2.96,2.19,4.2,1.92
AUUACCCUCGUCAUCCAGUGA [Fam2.1 aminoacylation ribozyme variant],1.18,1.94,1.51,1.29,1.02,1.44
AUUACCCUCGUCAUCGAGUGC [Fam2.1 aminoacylation ribozyme variant],1.29,1.17,0.914,0.864,0.477,0.96
AUUACCCUCGUCAUCGAGUUA [Fam2.1 aminoacylation ribozyme variant],0.569,0.983,0.915,0.943,0.486,0.965
AUUACCCUCGUCAUUGAGUGA [Fam2.1 aminoacylation ribozyme variant],11.2,3.99,4.09,2.55,5.16,2.22
AUUACCCUCUUCAUCGAGUGA [Fam2.1 aminoacylation ribozyme variant],1.52,1.41,1.33,1.11,0.851,1.02
AUUACCCUGAUCAUCAAGUGA [Fam2.1 aminoacylation ribozyme variant],3.86,2.77,2.3,1.77,3.1,1.57
AUUACCCUGAUCAUCGACUGA [Fam2.1 aminoacylation ribozyme variant],1.16,0.777,0.78,0.876,0.666,0.928
AUUACCCUGAUCAUCGAGUCA [Fam2.1 aminoacylation ribozyme variant],0.555,0.722,0.577,0.786,0.305,0.738

Sequence,self-aminoacylation [1],self-aminoacylation [2],self-aminoacylation [3],self-aminoacylation [4],self-aminoacylation [5],self-aminoacylation [6]
AUUACCCUGAUCAUCGUGUGA [Fam2.1 aminoacylation ribozyme variant],27.5,5.65,5.72,2.67,5.88,2.37
AUUACCCUGCUCAUCGAGGGA [Fam2.1 aminoacylation ribozyme variant],0.691,0.858,0.947,0.905,0.707,1.02
AUUACCCUGCUCAUCGAGUGA [Fam2.1 aminoacylation ribozyme variant],2.7,1.87,1.99,1.52,2.33,1.34
AUUACCCUGCUCAUCGGGUGA [Fam2.1 aminoacylation ribozyme variant],33.5,5.17,4.81,3.34,6,2.63
AUUACCCUGCUCAUGGAGUGA [Fam2.1 aminoacylation ribozyme variant],63.7,10.1,9.54,4.47,12.3,4.53
AUUACCCUGGACAACGAGUGA [Fam2.1 aminoacylation ribozyme variant],59.1,8.43,8.65,3.76,9.2,3.88
AUUACCCUGGACAGCGAGUGA [Fam2.1 aminoacylation ribozyme variant],10.9,4.19,3.3,2.12,2.52,2.24
AUUACCCUGGACAUCGAAUGA [Fam2.1 aminoacylation ribozyme variant],0.708,0.96,0.846,0.895,0.378,1.23
AUUACCCUGGACAUCGAGUGA [Fam2.1 aminoacylation ribozyme variant],19.6,5.18,5.32,2.79,5.97,2.52
AUUACCCUGGACAUCGCGUGA [Fam2.1 aminoacylation ribozyme variant],80,9.65,9.04,5.5,9.83,4.42
AUUACCCUGGACAUCGGGUGA [Fam2.1 aminoacylation ribozyme variant],29.7,10.2,9.33,7.46,7.69,7.02
AUUACCCUGGACCUCGAGUGA [Fam2.1 aminoacylation ribozyme variant],5.71,3.9,3.68,2.4,3.16,1.88
AUUACCCUGGAGAUCGAGUGA [Fam2.1 aminoacylation ribozyme variant],28.9,7.42,6.7,3.79,8.06,3.59
AUUACCCUGGAUAUCGAGUGA [Fam2.1 aminoacylation ribozyme variant],67.3,11.1,10.5,4.88,12.9,4.43
AUUACCCUGGCCAUCGAGGGA [Fam2.1 aminoacylation ribozyme variant],0.483,1.47,1.01,2.96,1.31,1.9
AUUACCCUGGCCAUUGAGUGA [Fam2.1 aminoacylation ribozyme variant],4.63,4.53,3.72,2.41,4.73,2.13
AUUACCCUGGGCAGCGAGUGA [Fam2.1 aminoacylation ribozyme variant],34.6,8.78,9.21,5.64,9.57,5.87
AUUACCCUGGGCAUAGAGUGA [Fam2.1 aminoacylation ribozyme variant],71.5,12.6,10.1,4.72,12.6,4.98
AUUACCCUGGGCAUCGAGAGA [Fam2.1 aminoacylation ribozyme variant],0.489,0.749,0.914,0.74,0.642,0.802
AUUACCCUGGGCAUCGAGCGA [Fam2.1 aminoacylation ribozyme variant],7.68,0.813,1.08,1.48,1.43,1.26
AUUACCCUGGGCAUCGAGUGC [Fam2.1 aminoacylation ribozyme variant],0.527,0.992,1.24,0.979,1.31,1.1
AUUACCCUGGUAAUCGAGUGC [Fam2.1 aminoacylation ribozyme variant],1.38,1.04,1.12,0.801,0.656,0.957
AUUACCCUGGUAAUCGCGUGA [Fam2.1 aminoacylation ribozyme variant],58.9,8.44,7.29,3.66,7.81,3.14
AUUACCCUGGUCAAUGAGUGA [Fam2.1 aminoacylation ribozyme variant],30.9,6.7,7.16,3.7,8.83,3.46
AUUACCCUGGUCACCGAGCGA [Fam2.1 aminoacylation ribozyme variant],0.94,1.54,2.08,1.25,0.843,1.16
